Laboratory results: paper PMC6929169, “Functional Characteristics of Caffeoyl Shikimate Esterase in Larix Kaempferi and Monolignol Biosynthesis in Gymnosperms” (International Journal of Molecular Sciences, 2019)

Substrate: O=C(/C=C/c1ccc(O)c(O)c1)O[C@@H]1CC(C(=O)O)=C[C@@H](O)[C@H]1O
Test: HPLC-MS of caffeic acid formed, Michaelis-Menten fit
Type: biochemical, Larix kaempferi
Conditions: 100 mM NaPO4 buffer pH 6.0, 500 μM dithiothreitol, 0–320 μM substrate, 1 μg enzyme in 100 μL, temperature of kinetics not given

B1: LkCSE (Larix kaempferi) (protein)
chain: MSAVEKPAAPPNFWGEMPEEEYYASQGVKNHQERFETPHGILFTQSWIPIEGPVKGIVCMTHGYGSDTGWLFQKISITYAQWGYAVFGADLLGHGRSDGLRCYMGDMEKIAAASLFFFKAMRDSEPYKGLPAFLFGESMGGATTLLMYFQDPDGWSGLIFSAPLFVMPEPMKPSWWRLTAYGLLFGLADTWAVMPDNKMVKKAIKDPEKLKIIASNPRRYTGPPRVGTMRELCRICAFFQENFEKVTIPFLTCHGTSDEVTAPQSSTDLYEKAKSEDKTLKLYDDMYHSLIQGEPDENANQVLADMREWLDARASRTSS
Km: 82.08 µM
